From patent EP2112167A2 (Genentech, Inc., dated 2009)

Tests used:
ErbB3 = molecular target: T1, ErbB3 (human, UniProt P21860 20-1342); test: not described
T1 construct: whole, on cells; In the co-immunoprecipitation it is the endogenous receptor of the cells (lysates); also called HER3

ErbB4 = molecular target: T2, ErbB4 (UniProt Q15303 26-649, limits assumed); test: not described
T2 construct: also called HER4
T2 sequence (looked up): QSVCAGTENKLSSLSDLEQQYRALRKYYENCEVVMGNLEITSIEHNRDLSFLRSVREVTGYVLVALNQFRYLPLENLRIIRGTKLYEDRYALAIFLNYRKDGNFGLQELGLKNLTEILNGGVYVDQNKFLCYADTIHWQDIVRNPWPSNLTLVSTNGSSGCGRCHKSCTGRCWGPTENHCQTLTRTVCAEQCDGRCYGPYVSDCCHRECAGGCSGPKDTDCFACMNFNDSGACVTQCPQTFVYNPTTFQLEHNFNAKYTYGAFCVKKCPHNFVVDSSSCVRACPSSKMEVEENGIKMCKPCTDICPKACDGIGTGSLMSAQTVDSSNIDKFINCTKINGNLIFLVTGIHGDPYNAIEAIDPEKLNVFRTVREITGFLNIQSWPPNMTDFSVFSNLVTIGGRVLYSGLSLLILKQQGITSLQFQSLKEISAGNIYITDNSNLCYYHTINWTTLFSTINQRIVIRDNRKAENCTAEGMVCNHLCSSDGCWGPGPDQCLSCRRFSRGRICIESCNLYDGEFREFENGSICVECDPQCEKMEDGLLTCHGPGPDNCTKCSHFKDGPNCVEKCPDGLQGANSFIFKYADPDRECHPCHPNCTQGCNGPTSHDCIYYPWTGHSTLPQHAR

EGFR = molecular target: T3, EGFR (UniProt P00533 25-645, limits assumed); test: not described (cited: Fendly et al.)
T3 construct: also called ErbB1; epidermal growth factor receptor

Measured: binding result

T1 sequence (P21860 20-1342): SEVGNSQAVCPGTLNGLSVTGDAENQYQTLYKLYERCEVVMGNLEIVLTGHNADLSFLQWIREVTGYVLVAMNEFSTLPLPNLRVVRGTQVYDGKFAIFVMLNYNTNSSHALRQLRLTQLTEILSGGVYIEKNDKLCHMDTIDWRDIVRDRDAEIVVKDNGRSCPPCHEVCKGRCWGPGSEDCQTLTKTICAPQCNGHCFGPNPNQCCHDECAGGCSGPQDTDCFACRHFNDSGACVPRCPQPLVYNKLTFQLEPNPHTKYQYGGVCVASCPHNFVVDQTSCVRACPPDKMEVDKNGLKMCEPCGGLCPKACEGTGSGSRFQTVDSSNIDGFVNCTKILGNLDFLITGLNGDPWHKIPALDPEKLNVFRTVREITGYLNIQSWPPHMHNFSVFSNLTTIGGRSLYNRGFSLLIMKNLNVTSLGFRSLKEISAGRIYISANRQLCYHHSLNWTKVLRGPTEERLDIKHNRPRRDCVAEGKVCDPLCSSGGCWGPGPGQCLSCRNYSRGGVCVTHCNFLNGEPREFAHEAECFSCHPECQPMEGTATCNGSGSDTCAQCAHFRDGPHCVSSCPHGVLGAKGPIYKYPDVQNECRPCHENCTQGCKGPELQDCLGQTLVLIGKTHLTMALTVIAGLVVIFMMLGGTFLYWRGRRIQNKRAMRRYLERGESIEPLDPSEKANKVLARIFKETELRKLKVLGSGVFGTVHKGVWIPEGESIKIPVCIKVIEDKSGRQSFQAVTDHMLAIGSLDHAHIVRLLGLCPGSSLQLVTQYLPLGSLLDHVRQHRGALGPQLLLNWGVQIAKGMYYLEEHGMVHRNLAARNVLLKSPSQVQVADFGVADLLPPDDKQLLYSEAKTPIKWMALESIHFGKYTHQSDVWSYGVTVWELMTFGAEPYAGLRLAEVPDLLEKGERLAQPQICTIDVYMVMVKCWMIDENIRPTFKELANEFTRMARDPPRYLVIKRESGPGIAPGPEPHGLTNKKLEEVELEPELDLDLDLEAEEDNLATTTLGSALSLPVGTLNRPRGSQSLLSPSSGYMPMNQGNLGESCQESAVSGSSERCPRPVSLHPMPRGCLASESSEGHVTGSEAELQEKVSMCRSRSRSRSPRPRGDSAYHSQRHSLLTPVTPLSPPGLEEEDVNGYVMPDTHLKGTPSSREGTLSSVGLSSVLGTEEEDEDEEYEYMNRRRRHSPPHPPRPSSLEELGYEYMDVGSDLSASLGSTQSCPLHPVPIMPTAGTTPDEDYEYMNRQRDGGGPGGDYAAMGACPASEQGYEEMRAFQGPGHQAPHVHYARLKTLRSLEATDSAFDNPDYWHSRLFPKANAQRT

B1: murine monoclonal antibody 2C4 (antibody, V domains shown)
VH: EVQLQQSGPELVKPGTSVKISCKASGFTFTDYTMDWVKQSHGKSLEWIGDVNPNSGGSIYNQRFKGKASLTVDRSSRIVYMELRSLTFEDTAVYYCARNLGPSFYFDYWGQGTTLTVSS
VL: DTVMTQSHKIMSTSVGDRVSITCKASQDVSIGVAWYQQRPGQSPKLLIYSASYRYTGVPDRFTGSGSGTDFTFTISSVQAEDLAVYYCQQYYIYPYTFGGGTKLEIK
notes: Intact murine monoclonal antibody from hybridoma; also called mu 2C4; ATCC HB-12697
no binding: all assays above
